Experimental data from US20230313187A1, “MODIFICATIONS OF MAMMALIAN CELLS USING ARTIFICIAL MICRO-RNA TO ALTER THEIR PROPERTIES AND THE COMPOSITIONS OF THEIR PRODUCTS” (DNA TWOPOINTO INC., priority 2020, published 2023).

How the values were obtained:
[1] = tested on: Cricetulus griseus glutamine synthetase mRNA; experiment: Growth of CHO cell pools with amiRNA targeted toward glutamine synthetase in the absence of glutamine; type: cell-based; conditions: for VCD: glutamine-free media
Text: The multi-hairpin amiRNA was cloned into a piggyBac-like transposon to the 3′ of a spacer polynucleotide with nucleotide sequence SEQ ID NO: 280, and operably linked to a PGK promoter with nucleotide sequence SEQ ID NO: 386. The nucleotide sequence of the multi-hairpin amiRNA gene is given as SEQ ID NO: 540. The piggyBac-like transposon further comprised a selectable marker conferring resistance to G418/neomycin with amino acid sequence SEQ ID NO: 296. The piggyBac-like transposon further comprised a target sequence 5′-TTAA-3′ immediately followed by an ITR with nucleotide sequence SEQ ID NO: 448 (which is an embodiment of SEQ ID NO: 564), immediately followed by further transposon end sequences with nucleotide sequence SEQ ID NO: 445. The piggyBac-like transposon further comprised nucleotide sequence SEQ ID NO: 446, immediately followed by a second ITR with nucleotide sequence SEQ ID NO: 449 (which is an embodiment of SEQ ID NO: 447), immediately followed by the target sequence 5′-TTAA-3′. The transposon was configured so that the multi-hairpin amiRNA, the spacer polynucleotide and the gene encoding the selectable marker, as well as all necessary operably linked control elements, were transposable by a corresponding transposase. The full sequence of the transposon comprising the multi-hairpin amiRNA gene and selectable marker is given as SEQ ID NO: 544.
The transposon was co-transfected with mRNA encoding transposase with polypeptide sequence SEQ ID NO: 523 into a CHO cell line with intact glutamine synthetase genes. The pool of transfected cells were grown in the presence of 600 or 1,000 μg/ml G418 plus 5 mM glutamine until their viability reached 95%.
After the transfected cell pools had recovered to >95% viability, we tested their ability to grow in the absence of glutamine. Cells were transferred to Sigma Advanced Fed Batch media lacking glutamine to an initial a density of 0.3×10^6 live cells/ml. The viable cell density was measured at various times after the removal of glutamine. On the fourth day, cells were diluted back to a density of 0.3×10^6 live cells/ml in media lacking glutamine, to ensure that growing cells had sufficient nutrients. […] After this, the viable cell density approximately tripled between dilution on day 4 and day 6 and doubled again between day 6 and day 8. […] The viable cell density then began to fall for both pools transfected with a transposon comprising the multi-hairpin amiRNA with nucleotide sequence SEQ ID NO: 209 at day 6 (Table 7 columns B and C, compare rows 6, 7 and 8). By day 8 the viable cell density had fallen precipitously to less than 0.02×10^6 live cells/ml. There was no difference between the growth of cells transfected with the control transposon or the transposon comprising the multi-hairpin amiRNA with nucleotide sequence SEQ ID NO: 209 in the presence of glutamine: all pools grew well. We conclude that a multi-hairpin amiRNA comprising guide strand sequences complementary to three different sequences within the CHO glutamine synthetase mRNA target (nucleotide sequence SEQ ID NO: 10) can be used to make a CHO cell dependent upon exogenously provided glutamine. The cells in this pool had been selected with neomycin/G418, which allowed growth of cells whose genomes comprised the transposon comprising the multi-hairpin amiRNA. […] By using the multi-hairpin amiRNA gene we were able to produce a pool of cells in which expression of the essential metabolic enzyme glutamine synthetase was inhibited to a level that prevents growth of the cell in greater than 93% of the cells in the pool.
The multi-hairpin amiRNA with nucleotide sequence SEQ ID NO: 209 was also cloned into three other piggyBac-like transposons, also to the 3′ of a spacer polynucleotide with nucleotide sequence SEQ ID NO: 280. In the first transposon the multi-hairpin amiRNA was operably linked to a PGK promoter with nucleotide sequence SEQ ID NO: 385. […]

[2] = tested on: Cricetulus griseus alpha-(1,6)-fucosyl transferase (FUT8) mRNA; experiment: Antibody titer and fucosylation with different numbers of amiRNA hairpins in the 3' UTR of the glutamine synthetase selectable marker; type: cell-based; conditions: for antibody titer: weaker (PGK) promoter operably linked to glutamine synthetase, amiRNA in 3' UTR; for antibody fucosylation: weaker (PGK) promoter, amiRNA in GS 3' UTR, natural level around 80-85%
Text: One- two- or three-hairpin amiRNAs were incorporated into the 3′ UTR of a glutamine synthetase selectable marker on a transposon. The multi-hairpin amiRNA with nucleotide sequence SEQ ID NO: 194 comprised three hairpins as described in Section 6.1.1.1.
These amiRNA sequences were placed to the 3′ of an open reading frame encoding a glutamine synthetase protein (with polypeptide sequence SEQ ID NO: 307) and followed by a human globin polyadenylation sequence. The amiRNA genes were cloned into a transposon vector in which they were operably linked to a Pol II promoter. The transposon further comprised genes encoding an antibody with mature light chain polypeptide sequence SEQ ID NO: 286 and mature heavy chain polypeptide sequence SEQ ID NO: 288. The transposon further comprised a left end comprising a 5′-TTAA-3′ target sequence immediately followed by an ITR with nucleotide sequence SEQ ID NO: 423 (which is an embodiment of SEQ ID NO: 421) and additional nucleotide sequence SEQ ID NO: 417 and a right end comprising nucleotide sequence SEQ ID NO: 419 immediately followed by an ITR with nucleotide sequence SEQ ID NO: 424 (which is an embodiment of SEQ ID NO: 422) immediately followed by a 5′-TTAA-3′ target sequence. The transposon was configured so that the multi-hairpin amiRNA, the glutamine synthetase gene and the genes for both antibody chains, as well as all necessary operably linked control elements were transposable by a corresponding transposase.
Transposons were co-transfected with mRNA encoding transposase with polypeptide sequence SEQ ID NO: 472 into a CHO cell line with no functional glutamine synthetase gene. The pool of transfected cells were grown in the absence of glutamine added to the media until their viability reached 95%. They were then grown in a 14 day fed-batch using Sigma Advanced Fed Batch media. Protein was purified from the culture supernatant using protein A affinity chromatography, reduced with dithiothreitol, and analyzed on an Agilent QTOF mass spectrometer. We integrated the area under the peaks at 50,456 Da (corresponding to the heavy chain modified by G0: the conserved heptasaccharide core composed of 2 N-acetylglucosamine, 3 mannose and 2 other N-acetylglucosamine residues that are β-1,2 linked to α-6 mannose and α-3 mannose, forming two arms) and 50,602 (corresponding to the heavy chain modified by G0F: the conserved heptasaccharide core plus a fucose residue) to calculate the relative proportion of fucosylated and afucosylated antibody.
Table 5. Inhibition of antibody fucosylation with different numbers of amiRNA hairpins. Transposons were constructed as described in Section 6.1.2.1. The SEQ ID NO of the amiRNA gene including the glutamine synthetase ORF and the globin polyA sequence is given in column A. The Pol II promoter shown in column B was operably linked to the amiRNA whose SEQ ID NO is shown in column C. The amiRNA comprised the number of hairpins shown in column D. Following a 14-day fed batch antibody production run, the culture supernatant contained the concentration of antibody shown in column E. The percentage of antibody that was afucosylated is shown in column F, the percentage that was fucosylated is shown in column G. BDL=below detection limit.

B1: SEQ ID NO: 209: three-hairpin amiRNA, guides SEQ ID NOs 53, 54, 55 complementary to Cricetulus griseus glutamine synthetase mRNA (nucleic acid)
chain: ATCTGATCTTCTGAAGAAAATATATTTCTTTTTATTCATAGCTCTTAACTAGTGGTGATAGCAATGTCAGCAGTGCCTTTGAGTTACAATGAGACAGCTGGTGAAGCCACAGATGCAGCTGTCTCCTTGTAACTCACAAGTAAGGTTGACCATACTCTACTCTAGAGTTGTGTTTTAATGTATATTAATGTTACTAATGTGTTTACTAGTGGTGATAGCAATGTCAGCAGTGCCTTATTCTGACCAATAAAAGCAAGGTGAAGCCACAGATGCTTGCTTTTACTGGTCAGAATCAAGTAAGGTTGACCATACTCTACTCTAGGTTATTTTTAGTATGATTCTGTAAAAATGAATTAATACTAACTAGTGGTGATAGCAATGTCAGCAGTGCCTTTTTACCTGAAGAACTAGCAGCGTGAAGCCACAGATGGCTGCTAGTTATTCAGGTAAACAAGTAAGGTTGACCATACTCTACTCTAGTCAGTTTTATTGATAGTCTTTTCAGTATTATTGATAATCTT
In the case of B1, the “cells in the pool in which glutamine synthetase is inhibited to a level that prevents growth” value ([1]; G418-selected pool) is reported as “greater than 93%”, the “dependence on exogenously supplied glutamine” value ([1]; amiRNA operably linked to a promoter and integrated into the CHO genome, also PGK, EF1, EEF2 promoters in other transposons, listed as 209) is reported as “completely dependent upon exogenously supplied glutamine” and the “increase in viable cell density” value ([1]; between day 1 and day 4 without glutamine, pool selected with 600 μg/ml G418) is reported as “less than 50%”. The cells still alive ([1]; by day 8 without glutamine) was “less than 7%”, the viable cell density ([1]; by day 8 without glutamine, both pools) was “less than 0.02 ×10^6 live cells/ml” and the VCD ([1]; 600 ug/ml G418 pool, day 1) was 0.45 x 10^6 live cells/ml. For the same molecule, the VCD ([1]; 600 ug/ml G418 pool, day 4 after dilution) was 0.30 x 10^6 live cells/ml, the VCD ([1]; 600 ug/ml G418 pool, day 4 before dilution) was 0.47 x 10^6 live cells/ml and the VCD ([1]; 600 ug/ml G418 pool, day 6) was 0.21 x 10^6 live cells/ml. The VCD ([1]; 600 ug/ml G418 pool, day 8) was 0.01 x 10^6 live cells/ml, the VCD ([1]; 1000 ug/ml G418 pool, day 1) was 0.31 x 10^6 live cells/ml and the VCD ([1]; 1000 ug/ml G418 pool, day 4 after dilution) was 0.30 x 10^6 live cells/ml. The VCD ([1]; 1000 ug/ml G418 pool, day 4 before dilution) was 0.30 x 10^6 live cells/ml, the VCD ([1]; 1000 ug/ml G418 pool, day 6) was 0.26 x 10^6 live cells/ml and the VCD ([1]; 1000 ug/ml G418 pool, day 8) was 0.02 x 10^6 live cells/ml. For the same molecule, the VCD ([1]; pool selected with 600 ug/ml G418, day 0 (inoculation)) was 0.30 x 10^6 live cells/ml, the VCD ([1]; pool selected with 1000 ug/ml G418, day 0 (inoculation)) was 0.30 x 10^6 live cells/ml and the “increase in viable cell density” value ([1]; to day 4 without glutamine, pool selected with 1,000 μg/ml G418) was “failed to increase their viable cell density at all”.

B2: SEQ ID NO: 196: two-hairpin amiRNA, guides SEQ ID NOs 23 and 24 complementary to Cricetulus griseus FUT8 mRNA (nucleic acid)
chain: ATCTGATCTTCTGAAGAAAATATATTTCTTTTTATTCATAGCTCTTAACTAGTGGTGATAGCAATGTCAGCAGTGCCTGGAAAAACATCCATTCTCATTCGTGAAGCCACAGATGGAATGAGAATAGATGTTTTTCAAAGTAAGGTTGACCATACTCTACTCTAGTTATATTCTTTAGGCACGAATGTGTGTTTAAAAAAAATAAAAACTAGTGGTGATAGCAATGTCAGCAGTGCCTTTAAATTACATAATGTGGCAGTGTGAAGCCACAGATGACTGCCACATCATGTAATTTACAAGTAAGGTTGACCATACTCTACTCTAGAGTTGTGTTTTAATGTATATTAATGTTACTAATGTGTTTTCAGTTTTATTGATAGTCTTTTCAGTATTATTGATAATCTT
Molecule B2 has an antibody titer [2] of 770 mg/L and an antibody fucosylation [2] of 10%.

B3: SEQ ID NO: 197: single hairpin amiRNA, guide SEQ ID NO: 23 complementary to Cricetulus griseus FUT8 mRNA (nucleic acid)
chain: ATCTGATCTTCTGAAGAAAATATATTTCTTTTTATTCATAGCTCTTAACTAGTGGTGATAGCAATGTCAGCAGTGCCTGGAAAAACATCCATTCTCATTCGTGAAGCCACAGATGGAATGAGAATAGATGTTTTTCAAAGTAAGGTTGACCATACTCTACTCTAGAGTTGTGTTTTAATGTATATTAATGTTACTAATGTGTTTTCAGTTTTATTGATAGTCTTTTCAGTATTATTGATAATCTT
B3 was tested, and the antibody titer [2] was 514 mg/L and the antibody fucosylation [2] was “about 50%”.
